Data as given in patent publication US20170029530A1 (AbbVie / Abbott, published 2017).
“And” between values parts separate entries of the source, which are not always exact repeats. Identical values can stand only once.

T1: cDPEP3 (Macaca fascicularis, UniProt Q4R7M2)
T1 construct: extracellular domain; also called cynomolgus DPEP3-His; cynomolgus DPEP3 ECD with histidine tag
T1 sequence (single chain, looked up): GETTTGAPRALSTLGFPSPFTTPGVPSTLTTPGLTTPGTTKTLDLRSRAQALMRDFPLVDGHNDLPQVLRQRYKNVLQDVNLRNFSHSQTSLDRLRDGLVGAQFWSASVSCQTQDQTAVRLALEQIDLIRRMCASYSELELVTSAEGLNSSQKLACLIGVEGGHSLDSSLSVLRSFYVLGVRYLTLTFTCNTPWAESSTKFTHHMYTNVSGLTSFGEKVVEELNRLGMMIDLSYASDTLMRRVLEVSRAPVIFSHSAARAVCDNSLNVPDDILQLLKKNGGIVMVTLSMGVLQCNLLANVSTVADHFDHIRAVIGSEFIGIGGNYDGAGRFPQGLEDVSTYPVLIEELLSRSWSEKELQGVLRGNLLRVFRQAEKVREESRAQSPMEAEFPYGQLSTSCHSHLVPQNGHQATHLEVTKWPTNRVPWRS

T2: mDPEP3 (limits assumed)
T2 construct: also called mouse DPEP3-His; mouse DPEP3 ECD with histidine tag
T2 single chain: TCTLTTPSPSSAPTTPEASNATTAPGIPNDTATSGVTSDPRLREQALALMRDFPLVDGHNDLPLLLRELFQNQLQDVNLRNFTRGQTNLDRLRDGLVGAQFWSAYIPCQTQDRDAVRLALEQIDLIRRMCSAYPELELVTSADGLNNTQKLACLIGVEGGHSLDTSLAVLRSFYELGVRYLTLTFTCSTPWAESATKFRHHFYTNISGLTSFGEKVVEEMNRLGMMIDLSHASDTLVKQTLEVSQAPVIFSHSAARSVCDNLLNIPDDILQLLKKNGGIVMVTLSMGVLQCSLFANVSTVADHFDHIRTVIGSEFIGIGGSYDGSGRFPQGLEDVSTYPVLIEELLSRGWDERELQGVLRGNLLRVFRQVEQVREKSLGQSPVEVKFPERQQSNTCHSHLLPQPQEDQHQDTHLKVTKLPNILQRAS

T3: rat DPEP3 ECD with histidine tag (rat, UniProt Q5U2X4 36-459, limits assumed)
T3 construct: also called rDPEP3-His; ratDPEP3-His; not shown: histidine tag
T3 sequence: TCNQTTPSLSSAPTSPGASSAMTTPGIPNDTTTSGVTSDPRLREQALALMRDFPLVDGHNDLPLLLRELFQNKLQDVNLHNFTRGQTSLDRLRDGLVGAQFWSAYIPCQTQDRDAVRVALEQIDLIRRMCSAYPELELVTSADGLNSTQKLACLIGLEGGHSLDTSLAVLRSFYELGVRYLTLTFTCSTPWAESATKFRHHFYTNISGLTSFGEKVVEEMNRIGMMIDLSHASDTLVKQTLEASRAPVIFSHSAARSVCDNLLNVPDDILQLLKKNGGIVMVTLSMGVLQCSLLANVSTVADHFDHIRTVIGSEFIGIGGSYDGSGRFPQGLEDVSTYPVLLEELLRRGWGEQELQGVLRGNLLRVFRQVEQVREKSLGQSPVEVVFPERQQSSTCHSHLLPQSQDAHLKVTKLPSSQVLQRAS

T4: hDPEP1-His (human, UniProt P16444 17-385, limits assumed)
T4 construct: Neither the origin nor the limits of this protein are described; not shown: histidine tag
T4 sequence (looked up): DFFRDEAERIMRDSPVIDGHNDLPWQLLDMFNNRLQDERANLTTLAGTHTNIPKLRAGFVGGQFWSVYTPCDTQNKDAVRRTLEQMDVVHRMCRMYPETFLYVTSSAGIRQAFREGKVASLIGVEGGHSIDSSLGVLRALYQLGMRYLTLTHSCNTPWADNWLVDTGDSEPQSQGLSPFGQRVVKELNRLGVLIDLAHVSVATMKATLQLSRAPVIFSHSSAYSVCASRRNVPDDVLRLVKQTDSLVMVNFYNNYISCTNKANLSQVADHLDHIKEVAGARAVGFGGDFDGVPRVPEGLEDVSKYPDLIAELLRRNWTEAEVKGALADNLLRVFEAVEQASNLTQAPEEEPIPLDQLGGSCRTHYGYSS

T5: hDPEP3-ECD-His (human, UniProt Q9H4B8 36-463)
T5 construct: also called hDPEP3-His; monomeric hDPEP3-His antigen; not shown: histidine tag
T5 sequence: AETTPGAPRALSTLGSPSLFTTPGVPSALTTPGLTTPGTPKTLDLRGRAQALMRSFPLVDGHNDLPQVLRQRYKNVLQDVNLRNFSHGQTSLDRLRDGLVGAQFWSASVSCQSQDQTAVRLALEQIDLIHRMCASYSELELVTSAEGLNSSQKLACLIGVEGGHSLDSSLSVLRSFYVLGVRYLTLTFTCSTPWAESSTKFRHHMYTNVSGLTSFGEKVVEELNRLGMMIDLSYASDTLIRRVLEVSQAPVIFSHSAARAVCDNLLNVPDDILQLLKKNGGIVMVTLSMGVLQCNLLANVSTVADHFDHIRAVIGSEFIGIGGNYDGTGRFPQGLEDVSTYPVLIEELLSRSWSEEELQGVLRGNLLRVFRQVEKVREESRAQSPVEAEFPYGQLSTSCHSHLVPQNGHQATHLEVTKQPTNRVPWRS

B1: SC34.61 (antibody, mouse IgG1, V domains shown)
VH: EVKLVESGGGLVKPGGSLKLSCAASGFTFTSYTMSWVRQTPAKRLEWVATISTGGGNTYYPDIVKGRFTISRDNARSTLYLQMSSLRSEDSAMYYCARRFYDGSYNYWYFDVWGAGTTVTVSS
VL: DIQMIQSPSSMFASLGDRVSLSCRASQGIRGNLDWYQQKPGGTIKLLIYSTSNLNSGVPSRFSGSGSGSDYSLTISSLESEDFADYYCLQRDAYPYTFGGGTKLEIK
B2: SC34.11 (antibody, mouse IgG2a, V domains shown)
VH: QVQLQQSGAELAKPGASVKMSCKASGYTFTNYWMIWVKQRPGQGLEWIGYIDPTTDYTAYNQKFKDKATVTADKSSSTAYMQLNSLTSEDSAVYYCARGGNVALDFWGQGTSVTVSS
VL: DIVMSQSPSSLAVSAGEKVTMSCKSSQSLLNSRTRKNYLAWYQQKPGQSPKLLIYWASTRESGVPDRFTGSGSGTDFTLTISSVQAEDLAVYYCKESYNLWTFGGGTKLEIK
B3: SC34.46 (antibody, mouse IgG1, V domains shown)
VH: QVQLQQSGTELARPGTSVKLSCKASGYTFRSYAISWVRQRTGQGLEWIGEIYPGSDKTYYNESLKGKVTLTTDKCSSTANMQLTSLTSEDSAVYFCARVHDYGSWFPYWGQGTLVTVSA
VL: DIVMSQSPSSLAVSVGEKVTMSCKSSQSLLYSKYQKNFLAWYQQKPGQSPKLLIYWASTRESGVPDRFTGSGSGTDFTLTISNVKAEDLAVYYCQQYYRYPLTFGAGTTLELK
B4: hSC34.38 humanized anti-DPEP3 antibody (antibody, human IgG1, kappa, V domains shown)
VH: EVQLVQSGAEVKKPGESLKISCKGSGYSFTSYYMYWVRQMPGKGLEWMGEINPSNGGANFNERFKNQVTISADKSISTAYLQWSSLKASDTAMYYCTRGLLYYDYDRGFAYWGQGTLVTVSS
VL: DVVMTQSPLSLPVTLGQPASISCKSSQSLLYSNRRTYLNWFQQRPGQSPRRLIYLVSKLDSGVPDRFSGSGSGTDFTLKISRVEAEDVGVYYCVQGTHFPFTFGQGTKLEIKR
notes: Human IgG1/kappa
B5: hSC34.2 humanized anti-DPEP3 antibody (antibody, human IgG1, kappa, V domains shown)
VH: EVQLVQSGAEVKKPGESLKISCKGSGYSFTDYYINWVRQMPGKGLEWMGWTYPGSGPTKYNGKFRGQVTISADKSISTAYLQWSSLKASDTAMYYCARRGIYYYDGIYPNYFDYWGQGTTVTVSS
VL: DIQMTQSPSSLSASVGDRVTITCSASQGITNYLNWYQQKPGKAPKLLIYYTSRLHSGVPSRFSGSGSGTDFTLTISSLQPEDFATYYCQQYSKLPWTFGQGTKVEIKR
notes: Human IgG1/kappa
B6: hSC34.87 humanized anti-DPEP3 antibody (antibody, human IgG1, kappa, V domains shown)
VH: QVQLVQSGAEVKKPGASVKVSCKASGYTFTSYWMLWVRQAPGQRLEWMGYIDPRNGYTEYNQKFKDRVTITRDTSASTAYMELSSLRSEDTAVYYCARGGNVAMDYWGQGTLVTVSS
VL: DIVMTQSPDSLAVSLGERATINCKSSQSLLNSRTRKNYLAWYQQKPGQPPKLLIYWASTRESGVPDRFSGSGSGTDFTLTISSLQAEDVAVYYCKQSYNLWTFGGGTKLEIKR
notes: Human IgG1/kappa
B7: hSC34.11 humanized anti-DPEP3 antibody (antibody, human IgG1, kappa, V domains shown)
VH: EVQLVQSGAEVKKPGESLKISCKGSGYSFTNYWMIWVRQMPGKGLEWMGYIDPTTDYTAYNQKFKDQVTISADKSISTAYLQWSSLKASDTAMYYCARGGNVALDFWGQGTLVTVSS
VL: DIQMTQSPSSLSASVGDRVTITCKSSQSLLNSRTRKNYLAWYQQKPGKVPKLLIYWASTRESGVPSRFSGSGSGTDFTLTISSLQPEDVATYYCKESYNLWTFGGGTKVEIKR
notes: Human IgG1/kappa; The order is confirmed for hSC34.2 and hSC34.28
B8: hSC34.28 humanized anti-DPEP3 antibody (antibody, human IgG1, kappa, V domains shown)
VH: QVQLVQSGAEVKKPGSSVKVSCKASGGTFSSYWIEWVRQAPGQGLEWMGEILPGSGNTYYNERFKDRVTITADESTSTAYMELSSLRSEDTAVYYCARRAAAYYSNPEWFAYWGQGTLVTVSS
VL: EIVLTQSPATLSLSPGERATLSCTASSSVNSFYLHWYQQKPGLAPRLLIYSTSNLASGIPDRFSGSGSGTDFTLTISRLEPEDFAVYYCHQYHRSPYTFGQGTKLEIKR
notes: Human IgG1/kappa
B9: hSC34.25 humanized anti-DPEP3 antibody (antibody, human IgG1, kappa, V domains shown)
VH: QVQLVQSGAEVKKPGASVKVSCKASGYTFTSYAISWVRQAPGQRLEWMGEIYPGSGETYYNEKFKGRVTITRDTSASTAYMELSSLRSEDTAVYYCARVNDYGSWFPYWGQGTLVTVSS
VL: DIVMTQSPDSLAVSLGERATINCKSSQSLLYSRYQKNYVAWYQQKPGQPPKLLIYWASTRESGVPDRFSGSGSGTDFTLTISSLQAEDVAVYYCQQYYRYPLTFGQGTKLEIKR
notes: Human IgG1/kappa

Each binder was assayed against T1, cDPEP3 (assay: ELISA, coated antigen).

Does B1 bind?
Result: no binding (tested: 1 ug/mL)

Does B2 bind?
Result: no binding (tested: 1 ug/mL)

Molecular target: T2, mDPEP3
Experiment: ELISA, coated antigen

Does B1 bind?
Result: no binding (tested: 1 ug/mL)

Does B2 bind?
Result: no binding (tested: 1 ug/mL)

Each binder was assayed against T3, rat DPEP3 ECD with histidine tag (assay: ELISA, coated antigen).

Does B1 bind?
Result: no binding (tested: 1 ug/mL)

Does B2 bind?
Result: no binding (tested: 1 ug/mL)

The binders below were run against T6, hDPEP2 ECD with histidine tag (human, UniProt Q9H4A9 33-463) (assay: ELISA, coated antigen).
T6 construct: also called hDPEP2-His; not shown: histidine tag
T6 sequence (Q9H4A9 33-463): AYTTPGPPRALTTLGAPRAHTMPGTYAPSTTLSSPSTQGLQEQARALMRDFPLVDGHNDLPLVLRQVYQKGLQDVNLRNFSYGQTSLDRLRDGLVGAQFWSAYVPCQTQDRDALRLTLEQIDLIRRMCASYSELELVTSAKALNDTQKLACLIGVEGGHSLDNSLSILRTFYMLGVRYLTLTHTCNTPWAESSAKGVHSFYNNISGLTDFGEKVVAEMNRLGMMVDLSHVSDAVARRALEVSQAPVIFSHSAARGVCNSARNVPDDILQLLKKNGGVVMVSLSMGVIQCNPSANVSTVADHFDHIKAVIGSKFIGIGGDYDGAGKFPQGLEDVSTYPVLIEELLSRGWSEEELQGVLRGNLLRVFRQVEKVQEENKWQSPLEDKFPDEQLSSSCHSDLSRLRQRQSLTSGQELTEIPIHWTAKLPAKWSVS

Does B1 bind?
Result: no binding (tested: 1 ug/mL)

What follows are binders tested against T6, hDPEP2 ECD with histidine tag (assay: ELISA, coated antigen, antibody 1 ug/mL).
Experimental: The anti-DPEP3 antibodies were screened by ELISA for cross-reactivity with mouse, rat and cynomolgus DPEP3 and for cross reactivity to hDPEP2, the closest DPEP3 family member. ELISA was conducted as follows. Plates were coated with purified mouse, rat or cynomolgus DPEP3-His or hDPEP2-His at 0.3 μg/mL in 0.2 M carbonate-bicarbonate buffer, pH 9.4 overnight at 4° C. The protein solution was removed and the wells were blocked with 1% (w/v) BSA in PBS (PBSA), 100 μL/well for 1 hour at 37° C. Anti-DPEP3 antibody or a mouse isotype control antibody was then added at 1 μg/mL in 50 μL PBSA for 1 hour at room temperature. After washing with water, 50 μL/well HRP-labeled goat anti-mouse IgG antibody diluted 1:10,000 in PBSA was added for 30 min at room temperature. The plates were washed and developed by the addition of 40 μL/well of the TMB substrate solution (Thermo Scientific) at room temperature. An equal volume of 0.2 M H₂SO₄ was added to stop substrate development. The samples were then analyzed by spectrophotometer at OD 450. […] The cross reactivity results for exemplary DPEP3-specific antibodies can be seen in FIG. 4.

Does B3 bind?
Result: binds

Does B2 bind?
Result: binds

The binders below were run against T3, rat DPEP3 ECD with histidine tag (assay: SPR, BIAcore 2000, antibody captured with anti-human capture kit).

Does B4 bind?
Result: no binding

Does B5 bind?
Result: no binding

Does B6 bind?
Result: no binding

Does B7 bind?
Result: no binding

Does B8 bind?
Result: no binding

Does B9 bind?
Result: no binding

What follows are binders tested against T4, hDPEP1-His in the same assay as above.

Does B4 bind?
Result: no binding

Does B5 bind?
Result: no binding

Does B6 bind?
Result: no binding

Does B7 bind?
Result: no binding

Does B8 bind?
Result: no binding

Does B9 bind?
Result: no binding

These binders were tested against T5, hDPEP3-ECD-His (assay: BLI ForteBio RED, 200 nM hDPEP3-His, estimated grade).
How it was run: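 Antibodies were captured on anti-mouse Fc biosensors to 0.3-1 units, then exposed to hDPEP3-His for a 4 min association and a 3 min dissociation at 1000 rpm. A control mouse IgG response was subtracted, and KD was estimated qualitatively from the curves. Sensors were regenerated with 10 mM glycine, pH 1.7.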

With B1 as the binder, how does the Kd read?
The Kd was over 10 nM.

B3 was tested. Which Kd did it give?
The Kd was under 5 nM.

With B2 as the binder, how does the Kd read?
Its Kd is ≥ 5 nM and ≤ 10 nM.
